Assay results published in PMC9121088, “The novel P330L pathogenic variant of aromatic amino acid decarboxylase maps on the catalytic flexible loop underlying its crucial role” (Cellular and Molecular Life Sciences: CMLS, 2022).
Residue numbers refer to the chain shown, from its start. Names may count otherwise.

B1: aromatic amino acid decarboxylase (AADC), wild-type (Homo sapiens) (protein)
chain: MNASEFRRRGKEMVDYMANYMEGIEGRQVYPDVEPGYLRPLIPAAAPQEPDTFEDIINDVEKIIMPGVTHWHSPYFFAYFPTASSYPAMLADMLCGAIGCIGFSWAASPACTELETVMMDWLGKMLELPKAFLNEKAGEGGGVIQGSASEATLVALLAARTKVIHRLQAASPELTQAAIMEKLVAYSSDQAHSSVERAGLIGGVKLKAIPSDGNFAMRASALQEALERDKAAGLIPFFMVATLGTTTCCSFDNLLEVGPICNKEDIWLHVDAAYAGSAFICPEFRHLLNGVEFADSFNFNPHKWLLVNFDCSAMWVKKRTDLTGAFRLDPTYLKHSHQDSGLITDYRHWQIPLGRRFRSLKMWFVFRMYGVKGLQAYIRKHVQLSHEFESLVRQDPRFEICVEVILGLVCFRLKGSNKVNEALLQRINSAKKIHLVPCHLRDKFVLRFAICSRTVESAHVQRAWEHIKELAADVLRAERE
B2: aromatic amino acid decarboxylase (AADC), P330L variant (Homo sapiens; P330L) (protein)
chain: B1 chain with P330L

Assays:
[1] = target: T1, aromatic amino acid decarboxylase (AADC), wild-type (Homo sapiens, UniProt P20711); assay: intrinsic fluorescence quenching titration of apoenzyme (KD(PLP)); format: binding
T1 construct: gene DDC
T1 sequence (P20711 1-480): B1 chain

[2] = target: T2, aromatic amino acid decarboxylase (AADC), P330L variant (Homo sapiens, UniProt P20711, P330L); assay: as above; format: binding
T2 construct: gene DDC
T2 sequence (P20711 1-480 P330L): B1 chain with P330L

[3] = target: T2, aromatic amino acid decarboxylase (AADC), P330L variant; assay: CD thermal denaturation at […] nm ([…] to […] °C) of cDopa-bound form; format: binding
[4] = target: T1, aromatic amino acid decarboxylase (AADC), wild-type; assay: CD thermal denaturation at […] nm ([…] to […] °C); DLS of cDopa-bound form; format: binding
purified protein [5] = substrate: N[C@@H](Cc1c[nH]c2ccc(O)cc12)C(=O)O; assay: purified protein; format: biochemical, Homo sapiens; conditions: pH 7.4; 25.0 °C
purified protein [6] = substrate: N[C@@H](Cc1ccc(O)c(O)c1)C(=O)O; assay: purified protein; conditions: PLP active site; external aldimine with PLP; pH 7.4; 25.0 °C

Molecule	Kd [1] [nM]	Kd [2] [nM]	P330L (°C) [3] [°C]	WT (°C) [4] [°C]	Km (purified protein [5]) [mM]	kcat (purified protein [5]) [s⁻¹]	kcat/Km (purified protein [5]) [M⁻¹ s⁻¹]	Km (purified protein [6]) [mM]	kcat (purified protein [6]) [s⁻¹]	kcat/Km (purified protein [6]) [M⁻¹ s⁻¹]
Cc1ncc(COP(=O)(O)O)c(C=O)c1O [PLP, pyridoxal 5'-phosphate]	101 ± 10	123 ± 19								
C[C@@](Cc1ccc(O)c(O)c1)(NN)C(=O)O [cDopa, carbiDopa]			69.9 ± 0.3	68.9 ± 0.4						
B1					0.009 ± 0.001	0.56 ± 0.02	62000 ± 7000	0.016 ± 0.001	5.5	344000
B2					0.029 ± 0.003	0.0092 ± 0.0003	320 ± 30	0.057 ± 0.002	0.0291	510
